The values below come from patent publication KR20150000795A.

The target of this assay is c-Met on MKN45 gastric cancer cells / Caki-1 kidney cancer cells (human) (UniProt P08581). Put plainly: cell-based or functional assay.
Chain of UniProt P08581 (P08581 25-1390): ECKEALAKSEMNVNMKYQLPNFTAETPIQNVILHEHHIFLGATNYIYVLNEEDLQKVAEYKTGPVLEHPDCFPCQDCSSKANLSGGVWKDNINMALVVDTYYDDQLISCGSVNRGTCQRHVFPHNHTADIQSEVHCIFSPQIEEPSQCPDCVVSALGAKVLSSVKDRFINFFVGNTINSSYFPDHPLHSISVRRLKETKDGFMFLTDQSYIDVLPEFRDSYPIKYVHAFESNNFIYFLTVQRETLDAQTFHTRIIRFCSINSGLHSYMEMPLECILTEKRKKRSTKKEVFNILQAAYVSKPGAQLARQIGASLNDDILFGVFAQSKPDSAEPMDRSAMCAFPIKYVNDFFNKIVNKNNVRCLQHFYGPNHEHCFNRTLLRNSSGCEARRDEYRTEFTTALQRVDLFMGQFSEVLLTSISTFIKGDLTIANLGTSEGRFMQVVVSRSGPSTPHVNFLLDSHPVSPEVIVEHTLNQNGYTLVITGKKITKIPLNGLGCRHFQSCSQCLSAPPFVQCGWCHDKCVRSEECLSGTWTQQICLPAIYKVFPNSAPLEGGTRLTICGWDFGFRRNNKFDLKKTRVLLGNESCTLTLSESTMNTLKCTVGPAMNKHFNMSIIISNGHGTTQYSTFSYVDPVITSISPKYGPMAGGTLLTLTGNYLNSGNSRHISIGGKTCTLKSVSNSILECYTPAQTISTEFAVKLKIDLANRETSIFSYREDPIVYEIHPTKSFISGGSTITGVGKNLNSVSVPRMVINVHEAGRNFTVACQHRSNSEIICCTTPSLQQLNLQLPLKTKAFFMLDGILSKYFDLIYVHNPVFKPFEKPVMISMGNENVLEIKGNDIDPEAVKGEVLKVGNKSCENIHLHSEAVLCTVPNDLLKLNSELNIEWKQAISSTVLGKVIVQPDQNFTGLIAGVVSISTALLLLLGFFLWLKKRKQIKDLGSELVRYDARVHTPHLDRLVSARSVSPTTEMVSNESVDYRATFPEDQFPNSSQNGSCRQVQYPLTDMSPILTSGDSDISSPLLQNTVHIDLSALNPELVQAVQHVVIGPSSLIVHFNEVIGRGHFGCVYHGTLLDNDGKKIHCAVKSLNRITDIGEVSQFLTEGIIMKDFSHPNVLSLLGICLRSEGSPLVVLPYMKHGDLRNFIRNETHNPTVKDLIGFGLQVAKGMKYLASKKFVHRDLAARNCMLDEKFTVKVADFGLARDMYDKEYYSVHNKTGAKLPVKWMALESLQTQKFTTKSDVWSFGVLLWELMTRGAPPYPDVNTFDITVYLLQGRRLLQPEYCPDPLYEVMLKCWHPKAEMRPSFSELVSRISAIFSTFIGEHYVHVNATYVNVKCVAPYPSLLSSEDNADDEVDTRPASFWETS

Consider 5D5 (antibody), for which the Akt phosphorylation (Ser473), phospho-AKT1 sandwich ELISA, Caki-1 cells (reference set to 100%) is 100%.
